From US20120129892A1, “NOVEL PHARMACEUTICALLY ACCEPTABLE SALTS OF 4-(1H-IMIDAZOL-4-[…])PYRIDINE AND THEIR THERAPEUTICAL USES” (BIOPROJET, priority 2009, published 2012)
Several values for one entry are separate records, joined by “and”; a condition that tells them apart may be missing. Identical values can stand only once.

Assays:
Assay in all cases: purified protein, by the assay type
Details in all cases: other: pH 7.4, 20 μM (S)-adenosyl methionine
[1] = substrate: NCCc1c[nH]cn1
[2] = substrate: C[C@@H](N)Cc1c[nH]cn1
[3] = substrate: c1cc(Cc2cnc[nH]2)ccn1

B1: human HMT (Homo sapiens) (protein)
chain: MASSMRSLFSDHGKYVESFRRFLNHSTEHQCMQEFMDKKLPGIIGRIGDTKSEIKILSIGGGAGEIDLQILSKVQAQYPGVCINNEVVEPSAEQIAKYKELVAKTSNLENVKFAWHKETSSEYQSRMLEKKELQKWDFIHMIQMLYYVKDIPATLKFFHSLLGTNAKMLIIVVSGSSGWDKLWKKYGSRFPQDDLCQYITSDDLTQMLDNLGLKYECYDLLSTMDISDCFIDGNENGDLLWDFLTETCNFNATAPPDLRAELGKDLQEPEFSAKKEGKVLFNNTLSFIVIEA
[1]
  Km: 3.93 µM
  Vmax: 0.19 µM/min
  Vmax/Km: 0.048 min⁻¹
[2]
  Km: 16.26 µM
  Vmax: 0.56 µM/min
  Vmax/Km: 0.034 min⁻¹
[3]
  Vmax: 0.004 µM/min and 0.003 µM/min
  Vmax/Km: 0.0011 min⁻¹ and 0.0012 min⁻¹
